Consider 13 molecules from patent US20240059757A1 (VIR BIOTECHNOLOGY, published 2024).

Experiment [1] has as its target T1, SARS-CoV RBD (Sino Biological) (SARS-CoV, UniProt P59594 306-527). Kind of experiment: ELISA. On the technique in general: An ELISA detects its analyte on a solid surface through an enzyme-linked reagent.
The target of experiment [2] is T2, SARS-CoV-2 RBD-mouse Fc (Sino Biological) (SARS-CoV-2, UniProt P0DTC2 331-541).
In experiment [3] the target is T3, SARS-CoV-2 Spike protein (SARS-CoV-2 Wuhan-Hu-1, UniProt P0DTC2 14-1273). Kind of experiment: cell-based or functional assay.
The target in experiment [4] is T2, SARS-CoV-2 RBD-mouse Fc (Sino …). The source holds these as a separate data set.
The target in experiment [5] is T3, SARS-CoV-2 Spike protein. Kind of experiment: cell-based or functional assay. This is another data set of the same source.
For experiment [6], the target named is T3, SARS-CoV-2 Spike protein.
Experiment [7] concerns the target T3, SARS-CoV-2 Spike protein. The source holds these as a separate data set.
Experiment [8] addresses T4, SARS-CoV-2 RBD (residues 331-550 of spike from BetaCoV/Wuhan-Hu-1/2019, accession number MN908947) (SARS-CoV-2 Wuhan-Hu-1, UniProt P0DTC2 331-550). Kind of experiment: BLI.
Experiment [9] deals with T1, SARS-CoV RBD (Sino Biological). Nature of the experiment: BLI.
Experiment [10] addresses T4, SARS-CoV-2 RBD (residues 331-550 of …). Nature of the experiment: ELISA.
Experiment [11] concerns the target T1, SARS-CoV RBD (Sino Biological). Nature of the experiment: ELISA. This is another data set of the same source.
The target in experiment [12] is T3, SARS-CoV-2 Spike protein. Kind of experiment: cell-based or functional assay. The source holds these as a separate data set.
Another experiment addresses SARS-CoV Spike protein (SARS-CoV, UniProt P59594 14-1255). Nature of the experiment: cell-based or functional assay.
The target in experiment [13] is T1, SARS-CoV RBD (Sino Biological).
Experiment [14] deals with T4, SARS-CoV-2 RBD (residues 331-550 of …).
Experiment [15] concerns the target T2, SARS-CoV-2 RBD-mouse Fc (Sino …). This is another data set of the same source.
In experiment [16] the target is T3, SARS-CoV-2 Spike protein. Nature of the experiment: cell-based or functional assay. This is another data set of the same source.
Experiment [17] concerns the target T3, SARS-CoV-2 Spike protein. Nature of the experiment: cell-based or functional assay. This is another data set of the same source.
The target of experiment [18] is T2, SARS-CoV-2 RBD-mouse Fc (Sino …). The source holds these as a separate data set.
The target in experiment [19] is T4, SARS-CoV-2 RBD (residues 331-550 of …). Nature of the experiment: BLI (Octet): antibody on Protein A pins, SARS-CoV-2 RBD at 6, 1.5 and 0.4 µg/ml. (In general: BLI is a label-free optical method that tracks binding on a fibre tip over time.)

Like-named read-outs stand apart in the source and are kept apart here.

B1: S2D32 (antibody, V domains shown)
VH: EVQLVESGGGLVQPGRSLRLSCTSSGFTFGDYPMSWFRQAPGKGLEWVGFIRSKAYGGTTQYAASVKGRFTISRDDSKNIAYLQMNSLKTEDTAVYYCTREMWDCSGGRCYSPFFDYWGQGTLVTVSS
VL: EIVMTQSPATLSVSPGERATLSCRASQTVSSNLAWYQQKPGQAPRLLIYGASTRATGIPARFSGSGSGTEFTLTISSLQSEDFAVYYCQQYNNWRTFGQGTKLEIK
With B1, the binding result in experiment [1] is “no binding”. Further, the “IC50 (read off the curve)” value in experiment [2] was roughly 0.03 µg/mL. Further, in the experiment with SARS-CoV-2 Spike protein [3], the “neutralization IC50” value is 0.036 µg/mL, the “neutralization IC80” value is 0.081 µg/mL, the “neutralization IC90” value was 0.129 µg/mL and the “neutralization IC95” value was 0.2 µg/mL.

B2: S2D8 (antibody, V domains shown)
VH: EVQLLESGGGLVQPGGSLRLSCAASGFTFTTYAMSWVRQAPGKGLEWVSGISGSGGNTYHADSVKGRFTISRDNSKSTLYLQMNSLRAEDTAVYYCAKDLWFREILHGMDVWGEGTTVTVSS
VL: QSALTQPASVSGSPGQSITISCTGTSSDIGGYNYVSWYQHHPGKAPKIMIYEVTNRPSGVSNRFSGSKSGNTASLTISGLQAEDEADYYCSSYTSSNTYVFGTGTKVTVL
As for B2, in experiment [1], the binding result was “no binding”. Besides, the “IC50 (read off the curve)” value in experiment [4] was roughly 0.03 µg/mL. In addition, in the experiment with SARS-CoV-2 Spike protein [3], the “neutralization IC50” value worked out at 0.03 µg/mL, the “neutralization IC80” value worked out at 0.058 µg/mL, the “neutralization IC90” value came out at 0.087 µg/mL and the “neutralization IC95” value is 0.125 µg/mL.

B3: S2D25 (antibody, V domains shown)
VH: EVQLVESGGGLVQPGGSLRLSCAASGFPFNIYAMSWVRQAPGKGLEWVSGISGSGGSTYYADSVRGRFAISRDNSKNTLYLQMNSLRAEDTAEYYCAKDLWFREILHGMDVWGKGTTVTVSS
VL: QSALTQPASVSGSPGQSITISCTGTSSDVGGYNYVSWYQHHPGRAPKLMIYEVSNRPSGVSNRFSGSKSGNTASLSISGLQAEDEADYYCSSYTSSSTYVFGAGTKVTVL
With B3, the binding result in [1] is recorded as “no binding”. In addition, the “IC50 (read off the curve)” value in [2] was roughly 0.03 µg/mL. Further, in the experiment with SARS-CoV-2 Spike protein [3], the “neutralization IC50” value worked out at 0.04 µg/mL, the “neutralization IC80” value came to 0.091 µg/mL, the “neutralization IC90” value was found to be 0.146 µg/mL and the “neutralization IC95” value stood at 0.228 µg/mL.

B4: S2H7 (antibody, V domains shown)
VH: EVQLVESGGGLVQPGGSLRLSCAASGFIVSSNYMSWVRQAPGKGLEWVSVIYSGGSTYYADSVKGRFTISRDNSKNTLYLQMNSLRAEDTSVYYCARDRQYSGSPSFDYWGQGTLVTVSS
VL: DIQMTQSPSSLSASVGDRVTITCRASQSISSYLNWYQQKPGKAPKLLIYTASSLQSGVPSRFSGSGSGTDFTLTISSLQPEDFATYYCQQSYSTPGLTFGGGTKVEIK
For B4, the “neutralization IC50” value with SARS-CoV-2 Spike protein [5] is 0.195 µg/mL.

B5: S2B2 v1 (antibody, V domains shown)
VH: QVQLVESGGGVVQPGRSLRLSCAASGFTFSNFGMHWVRQAPGKGLEWVAVISYDGNNKFYADSVKGRFTISRDNSKNTLYLQMNSLRAEDTAVYYCAKPTVSFGVVIDAFDIWGQGTMVTVSS
VL: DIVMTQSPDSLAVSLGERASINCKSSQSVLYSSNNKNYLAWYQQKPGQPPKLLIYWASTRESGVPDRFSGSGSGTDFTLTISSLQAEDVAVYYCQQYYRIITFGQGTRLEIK
As to B5, in the experiment with SARS-CoV-2 Spike protein [6], the EC50 was determined as 0.0107 µg/mL.

B6: S2B2 v2 (antibody, V domains shown)
VH: EVQLVESGGGVVQPGRSLRLSCAASGFTFSNFGMHWVRQAPGKGLEWVAVISYDGNNKFYADSVKGRFTISRDNSKNTLYLQMNSLRAEDTAVYYCSKPTVSFGVVIDAFDIWGQGTMVTVSS
VL: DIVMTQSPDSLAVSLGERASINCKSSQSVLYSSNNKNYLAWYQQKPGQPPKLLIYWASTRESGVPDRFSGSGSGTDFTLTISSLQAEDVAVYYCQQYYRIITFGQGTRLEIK
Regarding B6, the 50% effective concentration (EC50) in the experiment with SARS-CoV-2 Spike protein [6] turned out to be 0.00812 µg/mL.

B7: S2H14 (antibody, V domains shown)
VH: not shown
VL: NFMLTQPHSVSESPGKTVTISCTRSSGSIASNYVQWYQQRPGSSPTTVIYEDNQRPSGVPDRFSGSIDSSSNSASLTISGLKTEDEADYYCQSYDSSNQVFGGGTKLTVL
In the case of B7, in the experiment with SARS-CoV-2 Spike protein [5], the “neutralization IC50” value came to 0.847 µg/mL.

B8: S2A15 v1 (antibody, V domains shown)
VH: QVQLQESGPGLVKPSGTLSLTCAVSGGSISSSNWWSWVRQPPGKGLEWIGEIYHSGNTNYNPSLKSRVTISVDKSKNQFSLKLTSVTAADTAVYYCASRYCSSTSCPNWFDPWGQGTLVTVSS
VL: QSALTQPASVSGSPGQSITISCTGTSSDVGSYNLVSWYQQHPGKAPKFMIYEGSKRPSGVSNRFSGSKSGNTASLTISGLQAEDEADYYCCSYAGSSTWVFGGGTKLTVL
As for B8, in the experiment with SARS-CoV-2 Spike protein [7], it took 0.656 µg/mL to reach a half-maximal effect (EC50).

B9: S2A15 v2 (antibody, V domains shown)
VH: QITLKESGPGLVKPSGTLSLTCAVSGGSISSSNWWSWVRQPPGKGLEWIGEIYHSGNTNYNPSLKSRVTISVDKSKNQFSLKLTSVTAADTAVYYCASRYCSSTSCPNWFDPWGQGTLVTVSS
VL: QSALTQPASVSGSPGQSITISCTGTSSDVGSYNLVSWYQQHPGKAPKFMIYEGSKRPSGVSNRFSGSKSGNTASLTISGLQAEDEADYYCCSYAGSSTWVFGGGTKLTVL
In the experiment with SARS-CoV-2 Spike protein [7], B9 returned an EC50 of 0.335 µg/mL.

B10: S2D22 (antibody, V domains shown)
VH: EVHLVESGGGLVQPGGSLKLSCAASGFTFSGSAMHWVRQASGKGLEWVGRIRTKANTYATAYAASVKGRFTISRDDSKNTAYLQMNSLKTEDTAVYYCTRPAPYDFLSDYYTGEQLDYWGQGTLVTVSS
VL: QSVLTQPPSVSGAPGQRVTISCTGSSSNIGAGYDVHWYQQLPGAAPKLLIYGNSNRPSGVPDRFSGSKSGTSASLAITGLQAEDEADYYCQSYDSSLSGPEVFGTGTKVTVL
For B10, the Kd in experiment [8] was found to be 5.21 nM; in experiment [9] it was 53.5 nM. Also, the EC50 in [10] is 0.0353 µg/mL; in experiment [11], 0.0422 µg/mL. Besides, the “neutralization IC50” value with SARS-CoV-2 Spike protein [3] worked out at 0.865 µg/mL; with SARS-CoV-2 Spike protein [12], 1.03 µg/mL; with SARS-CoV Spike protein, 3.63 µg/mL. In addition, in the experiment with SARS-CoV-2 Spike protein [3], the “neutralization IC80” value was found to be 3.28 µg/mL. Also, the “neutralization IC90” value in the experiment with SARS-CoV-2 Spike protein [3] is 7.16 µg/mL. For the same molecule, the “neutralization IC95” value with SARS-CoV-2 Spike protein [3] was 14.7 µg/mL.

B11: S2X227 (antibody, V domains shown)
VH: EVQLVQSGAEVKKPGASVKVSCKASGYTFTSYYMHWVRQAPGQGLEWMGIINPGGVSTTYAHYAQKFQGRVTMTRDTSTSTVYMELSSLRSEDTAVYYCARSIAVFWGDAFDIWGQGTMVTVSS
VL: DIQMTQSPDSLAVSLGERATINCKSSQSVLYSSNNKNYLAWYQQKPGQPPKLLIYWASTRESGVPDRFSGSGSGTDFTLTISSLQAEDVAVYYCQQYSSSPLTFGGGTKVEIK
As for B11, the EC50 turned out to be 1.35 µg/mL in experiment [13] and 0.00109 µg/mL in experiment [14]. The molecule also returned an IC50 in experiment [15] of 0.0274 µg/mL. In the experiment with SARS-CoV-2 Spike protein [16], the “neutralization IC50” value worked out at 0.00445 µg/mL. In addition, the “neutralization EC50 (interpolated)” value with SARS-CoV-2 Spike protein [17] was 0.0053 µg/mL.

B12: S2A4 (antibody, V domains shown)
VH: EVQLVESGGGLVQPGGSLRLSCAASGFTFSSYWMNWVRQAPGKGLEWVANIKQDGSEKYYVDSVKGRFTISRDNAKNSLFLQMNSLRAEDTAVYYCARVWWLRGSFDYWGQGTLVTVSS
VL: NFMLTQPHSVSESPGKTVTISCTGSSGSIASNYVQWYQQRPGSAPTTVIYEDNQRPSGVPDRFSGSIDSSSNSASLTISGLKTEDEADYYCQSYDSSNHVVFGGGTKLTVL
Consider B12, for which the “IC50 (read off the curve)” value in experiment [4] was roughly 0.06 µg/mL. For the same molecule, the “neutralization IC50” value with SARS-CoV-2 Spike protein [5] is 3.45 µg/mL.

B13: S2X127 (antibody, V domains shown)
VH: EVQLVESGGGLIQPGGSLRLSCAASGLTVRSNYMSWVRQAPGKGLEWVSVMYSGGSTFYADSVKGRSTISRDNSKNTLYLQMNSLRAEDTAVYYCARGDIADDYHYGLDVWGQGTTVTVSS
VL: QSVLTQPPSVSGAPGQRVTISCTGSTSNIGAGYNVHWYQHFPGTSPKLLIYGNSNRPSGVPDRFSGSKSGTSASLAITGLQAEDEAAYYCQSYDSNLSGVFGGGTKLTVL
Turning to B13, the IC50 in [18] stood at 0.0102 µg/mL. The same molecule showed a Kd in [19] of less than 0.001 nM.

The term EC50 denotes the concentration giving half of the maximal effect. Low readings indicate higher potency in that assay, high ones lower potency in that assay. The Kd is the constant that tells how readily two partners part at equilibrium. A higher Kd goes with weaker binding. By IC50 is commonly meant the point on the concentration scale where inhibition reaches its midpoint.
